We go through 2 proteins from article doi:10.1101/2025.07.20.665809 (bioRxiv, 2025).

The series deals with the molecule itself. As to the kind of experiment: cross-linking.

Substitutions are numbered along the chain they refer to.

B1: His-hArc/Arg3.1 (recombinant human activity-regulated cytoskeleton-associated protein), wild type (natural protein, UniProt Q7LC44 2-396, looked up)
chain: ELDHRTSGGLHAYPGPRGGQVAKPNVILQIGKCRAEMLEHVRRTHRHLLAEVSKQVERELKGLHRSVGKLESNLDGYVPTSDSQRWKKSIKACLCRCQETIANLERWVKREMHVWREVFYRLERWADRLESTGGKYPVGSESARHTVSVGVGGPESYCHEADGYDYTVSPYAITPPPAAGELPGQEPAEAQQYQPWVPGEDGQPSPGVDTQIFEDPREFLSHLEEYLRQVGGSEEYWLSQIQNHMNGPAKKWWEFKQGSVKNWVEFKKEFLQYSEGTLSREAIQRELDLPQKQGEPLDQFLWRKRDLYQTLYVDADEEEIIQYVVGTLQPKLKRFLRHPLPKTLEQLIQRGMEVQDDLEQAAEPAGPHLPVEDEAETLTPAPNSESVASDRTQPE
As for B1, the binding result is “binds”.

B2: His-hArc/Arg3.1 C94/98A (natural protein, human, UniProt Q7LC44 2-396, looked up)
chain: B1 chain with C93A, C97A
As to B2, the binding result was “binds”.
